Among the data in PMC1904298 are K half values, retold here.

The test system of the data set is ϕC31 integrase (Streptomyces phage ϕC31?). As to the kind of experiment: EMSA. (In general: Mobility shift assays separate free from complexed probe on a gel.)
As for attB C+15G, 72 bp fragment, the K half stood at 72.7 nM.

With attB C-2A:G+2T, 72 bp fragment, the K half is 56.7 nM.

The substance attB C-2G, 72 bp fragment registered a K half of 55.7 nM.

In turn, attB G+2C, 72 bp fragment returned a K half of 58.3 nM.

In turn, attB G+16A, 72 bp fragment returned a K half of 53.3 nM.

Take attB G-16T, 72 bp fragment: the K half stood at 66 nM.

As for attB G-16T:G+16A, 72 bp fragment, the K half came out at 61.3 nM.

Substance attB T-15C, 72 bp fragment displayed a K half of 68.3 nM.

As for attB wt, 72 bp fragment, the K half is 61.3 nM.
